Measured values published in the MegaScale stability set (Tsuboyama et al. 2023).

B1: r16_88_TrROS_Hall (parent)
chain: EVIELKIKFKTPEQREKLKEIAKKLNAEVVEEKDGEVIIRFKTPEQAERALKEAEKLGAEVEL

Variants of: B1
Test: folding stability dG (cDNA display proteolysis); higher = more stable
Settings: PBS, room temperature

In order of rising “folding stability dG” value:
1. F41D  0.465 kcal/mol
2. I39D  0.533 kcal/mol
3. I39R  0.96 kcal/mol
4. F41E  0.961 kcal/mol
5. L18D  1.24 kcal/mol
6. I7P  2.3 kcal/mol
7. L18Q  2.9 kcal/mol
8. L18N  2.97 kcal/mol
9. F41G  3.01 kcal/mol
10. V37R  3.03 kcal/mol
11. F41H  3.13 kcal/mol
12. I39S  3.19 kcal/mol
13. F9T  3.73 kcal/mol
14. K42E  3.81 kcal/mol
15. I38D  3.82 kcal/mol
16. F9S  3.85 kcal/mol
17. T43N  3.86 kcal/mol
18. F9G  3.9 kcal/mol
19. V61S  3.93 kcal/mol
20. K23P  3.93 kcal/mol
21. K10E  4 kcal/mol
22. F41W  4 kcal/mol
23. E1K  4 kcal/mol
24. K42D  4.01 kcal/mol
25. A59I  4.01 kcal/mol
26. R49T  4.04 kcal/mol
27. V61F  4.05 kcal/mol
28. I21Q  4.06 kcal/mol
29. L63F  4.07 kcal/mol
30. V37Q  4.07 kcal/mol
31. L51Y  4.08 kcal/mol
32. K10I  4.09 kcal/mol
33. I7T  4.09 kcal/mol
34. K42H  4.1 kcal/mol
35. K19N  4.11 kcal/mol
36. A22N  4.12 kcal/mol
37. G58E  4.12 kcal/mol
38. K42T  4.13 kcal/mol
39. G35E  4.14 kcal/mol
40. V2I  4.15 kcal/mol
41. Q46M  4.15 kcal/mol
42. K8C  4.15 kcal/mol
43. R49P  4.17 kcal/mol
44. E28N  4.17 kcal/mol
45. R15N  4.17 kcal/mol
46. L63A  4.17 kcal/mol
47. E1W  4.18 kcal/mol
48. D34K  4.19 kcal/mol
49. Q46W  4.2 kcal/mol
50. K10P  4.2 kcal/mol
51. E53S  4.21 kcal/mol
52. V2R  4.21 kcal/mol
53. K10G  4.21 kcal/mol
54. E55H  4.21 kcal/mol
55. K6A  4.22 kcal/mol
56. V2N  4.22 kcal/mol
57. V61Q  4.22 kcal/mol
58. G58I  4.22 kcal/mol
59. Q46H  4.23 kcal/mol
60. G35F  4.24 kcal/mol
61. N26H  4.24 kcal/mol
62. N26F  4.24 kcal/mol
63. A27Y  4.25 kcal/mol
64. Q46T  4.25 kcal/mol
65. G58Y  4.25 kcal/mol
66. L63V  4.25 kcal/mol
67. K52N  4.26 kcal/mol
68. I38S  4.26 kcal/mol
69. R40K  4.27 kcal/mol
70. E55D  4.27 kcal/mol
71. G58H  4.27 kcal/mol
72. K33P  4.27 kcal/mol
73. A50L  4.28 kcal/mol
74. K52S  4.28 kcal/mol
75. Q46L  4.28 kcal/mol
76. Q46A  4.28 kcal/mol
77. A59D  4.28 kcal/mol
78. L5Q  4.28 kcal/mol
79. G58C  4.28 kcal/mol
80. E28A  4.29 kcal/mol
81. V2A  4.3 kcal/mol
82. K24H  4.3 kcal/mol
83. K10W  4.3 kcal/mol
84. E55K  4.3 kcal/mol
85. V29W  4.3 kcal/mol
86. V29I  4.3 kcal/mol
87. A27S  4.31 kcal/mol
88. L25D  4.31 kcal/mol
89. R15E  4.31 kcal/mol
90. E1L  4.31 kcal/mol
91. E36I  4.32 kcal/mol
92. L18I  4.33 kcal/mol
93. Q14L  4.33 kcal/mol
94. L57F  4.33 kcal/mol
95. I21T  4.33 kcal/mol
96. E32M  4.33 kcal/mol
97. G58M  4.33 kcal/mol
98. V37M  4.33 kcal/mol
99. E1N  4.33 kcal/mol
100. L5H  4.34 kcal/mol
101. K23N  4.34 kcal/mol
102. E1Y  4.34 kcal/mol
103. E62I  4.35 kcal/mol
104. I39C  4.35 kcal/mol
105. D34Q  4.35 kcal/mol
106. K42Y  4.36 kcal/mol
107. A27G  4.37 kcal/mol
108. E36C  4.39 kcal/mol
109. K24D  4.39 kcal/mol
110. A47S  4.39 kcal/mol
111. V29K  4.39 kcal/mol
112. T11A  4.39 kcal/mol
113. L51F  4.4 kcal/mol
114. E53Q  4.42 kcal/mol
115. K17N  4.42 kcal/mol
116. K19M  4.42 kcal/mol
117. E45K  4.42 kcal/mol
118. I21M  4.43 kcal/mol
119. A54I  4.43 kcal/mol
120. N26G  4.43 kcal/mol
121. I39V  4.44 kcal/mol
122. E16S  4.44 kcal/mol
123. E31D  4.45 kcal/mol
124. E1A  4.45 kcal/mol
125. K33W  4.45 kcal/mol
126. I3P  4.46 kcal/mol
127. E31Y  4.46 kcal/mol
128. Q46S  4.47 kcal/mol
129. K10R  4.47 kcal/mol
130. P12I  4.47 kcal/mol
131. E36M  4.48 kcal/mol
132. G35S  4.48 kcal/mol
133. K23R  4.48 kcal/mol
134. P44S  4.49 kcal/mol
135. E32H  4.49 kcal/mol
136. E62A  4.5 kcal/mol
137. D34I  4.5 kcal/mol
138. R49L  4.53 kcal/mol
139. V2Y  4.53 kcal/mol
140. P44F  4.54 kcal/mol
141. V29Y  4.55 kcal/mol
142. V2W  4.56 kcal/mol
143. P44Q  4.56 kcal/mol
144. T43M  4.56 kcal/mol
145. E32F  4.57 kcal/mol
146. E31Q  4.57 kcal/mol
147. E1G  4.57 kcal/mol
148. E16M  4.6 kcal/mol
149. T11W  4.6 kcal/mol
150. E45T  4.61 kcal/mol
151. K42R  4.62 kcal/mol
152. K8R  4.62 kcal/mol
153. A22L  4.62 kcal/mol
154. E55Y  4.66 kcal/mol
155. A22W  4.68 kcal/mol
156. E4A  4.69 kcal/mol
157. E45Y  4.73 kcal/mol
158. P12R  4.73 kcal/mol
159. R49F  4.76 kcal/mol
160. I3K  4.76 kcal/mol
161. E4F  4.76 kcal/mol
162. E20M  4.79 kcal/mol
163. E13L  4.88 kcal/mol
164. E13C  4.88 kcal/mol
165. I39F  4.92 kcal/mol
166. E20Y  4.95 kcal/mol
167. I38W  4.96 kcal/mol
